Assay results from US11278600B2, “Human alpha-galactosidase variants” (Codexis, Inc., priority 2014, dated 2022).

What was measured:
Format in all cases: biochemical
[1] = HTP-analysis of yeast culture supernatants, no challenge (MUGal hydrolysis); settings: activity of the variant/activity of Rd4BB (SEQ ID NO: 15)
How it was run: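 Activity read as 4-methylumbelliferyl α-D-galactopyranoside hydrolysis: fluorescence (355/448 nm) after sodium carbonate stop, following 30-180 min at 37° C with 2 mM MUGal stock at pH 4.6–4.8. Enzyme source is unchallenged culture supernatant of INVSc1 yeast expressing GLA variants, grown 66-84 h at 30° C.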

[2] = HTP-analysis of supernatants pretreated with base (MUGal hydrolysis); settings: activity of the variant/activity of Rd4BB (SEQ ID NO: 15); challenge at pH 9.65
How it was run: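 GLA variants secreted from yeast INVSc1; culture supernatants pre-incubated with McIlvaine buffer pH 7.0–8.2 or 200 mM bicarbonate pH 9.1–9.7 at 37° C. for 1–18 h. Residual activity: MUGal (4 mM stock) hydrolysis at pH 4.3–4.8, 37° C., 30–180 min, carbonate quench; fluorescence Ex 355/Em 448 nm.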

[3] = HTP-analysis of supernatants pretreated with acid (MUGal hydrolysis); settings: activity of the variant/activity of Rd4BB (SEQ ID NO: 15); challenge at pH 3.7
How it was run: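 Supernatants from INVSc1 yeast secreting GLA variants were challenged at 37° C. for 1-3 h in McIlvaine buffer at pH 3.3-4.3. Residual activity was then measured on 4 mM MUGal substrate stock at pH 4.8 with citrate buffer pH 4.3, over 30-180 min at 37° C. Reactions were quenched with sodium carbonate and read by fluorescence (Ex 355/Em 448 nm).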

Molecule	Relative Activity of GLA Variants After No Challenge (NC) [1]	Relative Activity of GLA Variants After Challenge at pH 9.65 [2]	Relative Activity of GLA Variants After Challenge at pH 3.7 [3]
373 (protein, Synthetic Polypeptide sequence of Variant No. 373 of mature Human GLA) LDNGLARTPTMGWLHWERFMCNLDCQEEPDSCISEKLFMERAERMVSEGWKDAGYEYLCIDDCWMAPQRDSEGRLQADPQRFPHGIRQLANYVHSKGLKLGIYADVGNKTCAGFPGSFGYYDIDAQTFADWGVDLLKFDGCYCDSLENLADGYKHMSLALNRTGRSIVYSCEWPLYMWPFQKPNYTEIRQYCNHWRNFADIDDSWKSIKSILDWTSRNQERIVDVAGPGGWNDPDMLVIGNFGLSWDQQVTQMALWAIMAAPLFMSNDLRHISPQAKALLQDKDVIAINQDPLGKQGYQLRKGDNFEVWERPLSGDAWAVAIINRQEIGGPRSYTIPVASLGKGVACNPACFITQLLPVKRQLGFYNWTSRLKSHINPTGTVLLQLENTMQMSLKDLL	− (<0.5 relative activity over Rd4BB (SEQ ID NO: 15))	− (<0.5 relative activity over Rd4BB (SEQ ID NO: 15))	− (<0.5 relative activity over Rd4BB (SEQ ID NO: 15))
379 (protein, Synthetic Polypeptide sequence of Variant No. 379 of mature Human GLA) LDNGLARTPTMGWLHWERFMCNLDCQEEPDSCISEKLFMEMAERMVTEGWKDAGYEYLCIDDCWMAPQRDSEGRLQADPQRFPHGIRQLANYVHSKGLKLGIYADVGNKTCAGFPGSFGYYDIDAQTFADWGVDLLKFDGCYCDSLENLADGYKHMSLALNRTGRSIVYSCEWPLYMWPFQKPNYTEIRQYCNHWRNFADIDDSWKSIKSILDWTSRNQERIVDVAGPGGWNDPDMLVIGNFGLSWDQQVTQMALWAIMAAPLFMSNDLRHISPQAKALLQDKDVIAINQDPLGKQGYQLRKGDNFEVWERPLSGDAWAVAIINRQEIGGPRSYTIPVASLGKGVACNPACFITQLLPVKRQLGFYNWTSRLKSHINPTGTVLLQLENTMQMSLKDLL	+ (0.5 to 1.5 relative activity over Rd4BB (SEQ ID NO: 15))	+ (0.5 to 1.5 relative activity over Rd4BB (SEQ ID NO: 15))	++ (>1.5 to 2.5 relative activity over Rd4BB (SEQ ID NO: 15))
377 (protein, Synthetic Polypeptide sequence of Variant No. 377 of mature Human GLA) LDNGLARTPTMGWLHWERFMCNLDCQEEPDSCISEKLFTEMAERMVSEGWKDAGYEYLCIDDCWMAPQRDSEGRLQADPQRFPHGIRQLANYVHSKGLKLGIYADVGNKTCAGFPGSFGYYDIDAQTFADWGVDLLKFDGCYCDSLENLADGYKHMSLALNRTGRSIVYSCEWPLYMWPFQKPNYTEIRQYCNHWRNFADIDDSWKSIKSILDWTSRNQERIVDVAGPGGWNDPDMLVIGNFGLSWDQQVTQMALWAIMAAPLFMSNDLRHISPQAKALLQDKDVIAINQDPLGKQGYQLRKGDNFEVWERPLSGDAWAVAIINRQEIGGPRSYTIPVASLGKGVACNPACFITQLLPVKRQLGFYNWTSRLKSHINPTGTVLLQLENTMQMSLKDLL	+ (0.5 to 1.5 relative activity over Rd4BB (SEQ ID NO: 15))	− (<0.5 relative activity over Rd4BB (SEQ ID NO: 15))	++ (>1.5 to 2.5 relative activity over Rd4BB (SEQ ID NO: 15))
374 (protein, Synthetic Polypeptide sequence of Variant No. 374 of mature Human GLA) LDNGLARTPTMGWLHWERFMCNLDCQEEPDSCISEKLFMEMAEMMVSEGWKDAGYEYLCIDDCWMAPQRDSEGRLQADPQRFPHGIRQLANYVHSKGLKLGIYADVGNKTCAGFPGSFGYYDIDAQTFADWGVDLLKFDGCYCDSLENLADGYKHMSLALNRTGRSIVYSCEWPLYMWPFQKPNYTEIRQYCNHWRNFADIDDSWKSIKSILDWTSRNQERIVDVAGPGGWNDPDMLVIGNFGLSWDQQVTQMALWAIMAAPLFMSNDLRHISPQAKALLQDKDVIAINQDPLGKQGYQLRKGDNFEVWERPLSGDAWAVAIINRQEIGGPRSYTIPVASLGKGVACNPACFITQLLPVKRQLGFYNWTSRLKSHINPTGTVLLQLENTMQMSLKDLL	+ (0.5 to 1.5 relative activity over Rd4BB (SEQ ID NO: 15))	+ (0.5 to 1.5 relative activity over Rd4BB (SEQ ID NO: 15))	+ (0.5 to 1.5 relative activity over Rd4BB (SEQ ID NO: 15))
375 (protein, Synthetic Polypeptide sequence of Variant No. 375 of mature Human GLA) LDNGLARTPTMGWLHWERFMCNLDCQEEPDSCISEKLFMEMAERMVIEGWKDAGYEYLCIDDCWMAPQRDSEGRLQADPQRFPHGIRQLANYVHSKGLKLGIYADVGNKTCAGFPGSFGYYDIDAQTFADWGVDLLKFDGCYCDSLENLADGYKHMSLALNRTGRSIVYSCEWPLYMWPFQKPNYTEIRQYCNHWRNFADIDDSWKSIKSILDWTSRNQERIVDVAGPGGWNDPDMLVIGNFGLSWDQQVTQMALWAIMAAPLFMSNDLRHISPQAKALLQDKDVIAINQDPLGKQGYQLRKGDNFEVWERPLSGDAWAVAIINRQEIGGPRSYTIPVASLGKGVACNPACFITQLLPVKRQLGFYNWTSRLKSHINPTGTVLLQLENTMQMSLKDLL	+ (0.5 to 1.5 relative activity over Rd4BB (SEQ ID NO: 15))	+ (0.5 to 1.5 relative activity over Rd4BB (SEQ ID NO: 15))	+ (0.5 to 1.5 relative activity over Rd4BB (SEQ ID NO: 15))
380 (protein, Synthetic Polypeptide sequence of Variant No. 380 of mature Human GLA) LDNGLARTPTMGWLHWERFMCNLDCQEEPDSCISEKLFMEMAERMVSEGWKDAGYEYLCIDDCWMAPQRDSEGRLQADPQRFPHGIRQLANKVHSKGLKLGIYADVGNKTCAGFPGSFGYYDIDAQTFADWGVDLLKFDGCYCDSLENLADGYKHMSLALNRTGRSIVYSCEWPLYMWPFQKPNYTEIRQYCNHWRNFADIDDSWKSIKSILDWTSRNQERIVDVAGPGGWNDPDMLVIGNFGLSWDQQVTQMALWAIMAAPLFMSNDLRHISPQAKALLQDKDVIAINQDPLGKQGYQLRKGDNFEVWERPLSGDAWAVAIINRQEIGGPRSYTIPVASLGKGVACNPACFITQLLPVKRQLGFYNWTSRLKSHINPTGTVLLQLENTMQMSLKDLL	+ (0.5 to 1.5 relative activity over Rd4BB (SEQ ID NO: 15))	− (<0.5 relative activity over Rd4BB (SEQ ID NO: 15))	+ (0.5 to 1.5 relative activity over Rd4BB (SEQ ID NO: 15))
376 (protein, Synthetic Polypeptide sequence of Variant No. 376 of mature Human GLA) LDNGLARTPTMGWLHWERFMCNLDCQEEPDSCISEKLFMEPAERMVSEGWKDAGYEYLCIDDCWMAPQRDSEGRLQADPQRFPHGIRQLANYVHSKGLKLGIYADVGNKTCAGFPGSFGYYDIDAQTFADWGVDLLKFDGCYCDSLENLADGYKHMSLALNRTGRSIVYSCEWPLYMWPFQKPNYTEIRQYCNHWRNFADIDDSWKSIKSILDWTSRNQERIVDVAGPGGWNDPDMLVIGNFGLSWDQQVTQMALWAIMAAPLFMSNDLRHISPQAKALLQDKDVIAINQDPLGKQGYQLRKGDNFEVWERPLSGDAWAVAIINRQEIGGPRSYTIPVASLGKGVACNPACFITQLLPVKRQLGFYNWTSRLKSHINPTGTVLLQLENTMQMSLKDLL	− (<0.5 relative activity over Rd4BB (SEQ ID NO: 15))	− (<0.5 relative activity over Rd4BB (SEQ ID NO: 15))	− (<0.5 relative activity over Rd4BB (SEQ ID NO: 15))
378 (protein, Synthetic Polypeptide sequence of Variant No. 378 of mature Human GLA) LDNGLARTPTMGWLHWERFMCNLDCQEEPDSCISEKLFMEMAETMVSEGWKDAGYEYLCIDDCWMAPQRDSEGRLQADPQRFPHGIRQLANYVHSKGLKLGIYADVGNKTCAGFPGSFGYYDIDAQTFADWGVDLLKFDGCYCDSLENLADGYKHMSLALNRTGRSIVYSCEWPLYMWPFQKPNYTEIRQYCNHWRNFADIDDSWKSIKSILDWTSRNQERIVDVAGPGGWNDPDMLVIGNFGLSWDQQVTQMALWAIMAAPLFMSNDLRHISPQAKALLQDKDVIAINQDPLGKQGYQLRKGDNFEVWERPLSGDAWAVAIINRQEIGGPRSYTIPVASLGKGVACNPACFITQLLPVKRQLGFYNWTSRLKSHINPTGTVLLQLENTMQMSLKDLL	+ (0.5 to 1.5 relative activity over Rd4BB (SEQ ID NO: 15))	+ (0.5 to 1.5 relative activity over Rd4BB (SEQ ID NO: 15))	− (<0.5 relative activity over Rd4BB (SEQ ID NO: 15))
